The source of these data is patent US9890400B2, “Method of production of 2,4-dihydroxybutyric acid” (ADISSEO FRANCE S.A.S., priority 2012, dated 2018).

Substrate in data set [1]: O=CC(=O)O
The experiment in a line: Malyl-CoA lyase assay coupled to citrate synthase / DTNB. The format is biochemical, M. extorquens. To be noted: other: pH 7.5, 37° C., 1 mM acetyl-CoA. The source says:
Construction of plasmids containing wild-type genes coding for malyl-CoA lyase: The DNA sequences of the mcl genes coding for malyl-CoA lyase in M. extorquens (Arps et al., 1993) and Rhodobacter capsulatus (Meister et al., 2005) were optimized for the expression in Escherichia coli using the GENEius software (Eurofins). The optimized sequences were synthesized by Eurofins MWG OPERON® adding NheI and EcoRI restriction sites upstream of the start codon and downstream of the stop codon of mcl, respectively, which allowed direct cloning of the synthesized DNA fragments into the pET28a+ vector (Novagen) using T4 DNA ligase (Biolabs). […]
Malyl-CoA lyase activity was assayed using a method adapted from (Meister et al., 2005). Malyl-CoA synthesis by malyl-CoA lyase was coupled to the citrate synthase-catalyzed release of coenzyme A which was monitored by its spontaneous reaction with DTNB. […]
The reaction mixture according to Assay 1 contained 50 mM MOPS/KOH (pH 7.5), 0.25 mM DTNB, 5 mM MgCl2, 1 mM acetyl-CoA, 20 U/mL citrate synthetase (all products from Sigma), and appropriate amounts of purified malyl-CoA lyase or cell extract. […] The reactions were followed by the characteristic absorption of DNTB at 412 nm (εDNTB+CoA=13.6 mM^−1 cm^−1) in a microplate reader (BioRad 680XR).

Substrate in data set [2]: O=CC[C@H](O)C(=O)O
Kind of data set: Malate semialdehyde reductase activity. The format is biochemical, Metallosphaera sedula. The following applies: other: malate semialdehyde, NADH or NADPH, pH 7.5, 30° C., average of at least two independent experiments. As for the experimental part:
(§1) Test for Malate Semialdehyde Reductase Activity: (L)-Malate semialdehyde+NAD(P)H→(L)-2,4-dihydroxybutyric acid+NAD(P) Reaction scheme:
(§2) The assay mixture contained 200 mM Hepes (pH 7.5), 50 mM KCl, 5 mM MgCl2, 0.24 mM NADH or NADPH, and appropriate amounts of purified enzyme or cell extract. Reactions were started by adding 10 mM (L)-malate semialdehyde (malate semialdehyde was prepared freshly for each test, see Example 3). Enzymatic assays were carried out at 30° C. in 96-well flat bottomed microtiter plates in a final volume of 250 μL. The reactions were followed by the characteristic absorption of NAD(P)H at 340 nm (εNADPH=6.22 mM^−1 cm^−1) in a microplate reader (BioRad 680XR).
Site-directed mutagenesis was carried out using the oligonucleotide pairs listed in Table 6 and the pET28-Mse-SSR plasmid as the template. Point mutations to change the amino acid sequences were introduced by PCR (Phusion 1U, HF buffer 20% (v/v), dNTPs 2.5 mM, direct and reverse primers 1 μM each, template plasmid 200 ng, water). When possible, plasmids created by PCR contained new restriction sites (introduced using silent mutations) in addition to the functional mutation to facilitate identification of mutated clones. The PCR products were digested by DpnI at 37° C. for 2×2 h to remove template DNA, and transformed into NEB DH5-α competent E. coli cells (NEB). The mutated plasmids were identified by restriction site analysis and verified to carry the desired mutations by DNA sequencing.

Substrate in data set [3]: O=CC[C@H](O)C(=O)O
The experiment in a line: Malate semialdehyde reductase activity. It is filed as biochemical, Metallosphaera sedula. To be noted: other: malate semialdehyde, NADH or NADPH, pH 7.5, 30° C., average of at least two independent experiments. As for the experimental part:
To identify a suitable 2,4 DHB dehydrogenase, beta-hydroxyacid dehydrogenases from different biological sources were tested for their ability to reduce malate semialdehyde. […] The genes YPR1, 4hbdh, yqhD, and Ms-SSR were amplified using primers listed in Table 5 and cloned into vector pET28 (restriction enzymes see Table 5) yielding plasmids pET28-Sce-YPR1, pET28-Pgi-4-hbdh, pET28-Eco-yqhd and pET28-Mse-SSR, respectively. The proteins were expressed and purified as described in Example 1.
as §1, §2
This is another data set of the same source.

Substrate in data set [4]: CC(C)(COP(=O)(O)OP(=O)(O)OC[C@H]1O[C@@H](n2cnc3c(N)ncnc32)[C@H](O)[C@@H]1OP(=O)(O)O)[C@@H](O)C(=O)NCCC(=O)NCCSC(=O)CCC(=O)O
The experiment in a line: purified protein, by the assay type. To be noted: other: reductive sense, succinyl-CoA added directly, NADPH, pH 7.5, 37° C., pH 7.5.

Substrate in data set [5]: O=CCCC(=O)O
Kind of data set: purified protein, by the assay type. To be noted: other: oxidative sense, 1 mM NADP, 0.5 mM coenzyme A, pH 9, 37° C., pH 9.0.

Substrate in data set [6]: O=CC[C@H](O)C(=O)O
Kind of data set: purified protein, by the assay type. It is filed as biochemical, Sulfolobus tokodaii. The following applies: other: oxidative sense, 1 mM NADP, 0.5 mM coenzyme A, pH 9, 37° C. The procedure: NCBI references of the utilized mcr and sucD protein sequences, and the references for the corresponding natural and synthetic DNA sequences are listed in Table 2.
To purify St-Mcr, frozen cell pellets of expression cultures were resuspended in 0.5 mL of breakage buffer (50 mM Hepes, 300 mM NaCl, pH 7.5) and broken open by four successive rounds of sonication (sonication interval: 20 sec, power output: 30%, sonicator: Bioblock Scientific, VibraCell™ 72437). Cell debris were removed by centrifuging the crude extracts for 15 min at 4° C. at 13000×g and retaining the clear supernatant. Native proteins of E. coli were removed by heat precipitation at 85° C. during 30 min followed by centrifugation at 13000×g. […]
Assay 1 (Reaction Scheme): glyoxylate+acetyl-CoA→malyl-CoA+acetate Malyl-CoA lyase: (L)-Malyl-CoA+NADPH→(L)-Malate semialdehyde+Coenzyme A+NADP Malyl-CoA reductase: Assay 2 (Reaction Scheme): (L)-Malate semialdehyde+Coenzyme A+NADP→(L)-Malyl-CoA+NADPH The reaction mixture according to Assay 1 contained 50 mM MOPS/KOH (pH 7.5), 10 mM glyoxylate, 4 mM acetyl-CoA, 5 mM MgCl2, 0.25 mM NADPH (all products from Sigma), 5 U/mL of malyl-CoA lyase, and appropriate amounts of purified malyl-CoA reductase or cell extract. […] The reactions were followed by the characteristic absorption of NADPH at 340 nm (εNADPH=6.22 mM^−1 cm^−1) in a microplate reader (BioRad 680XR). […]

B1: M. extorquens malyl-CoA lyase (Me-Mcl), wild type, SEQ ID No. 1 (Methylorubrum extorquens AM1) (protein)
chain: MSFTLIQQATPRLHRSELAVPGSNPTFMEKSAASKADVIFLDLEDAVAPDDKEQARKNIIQALNDLDWGNKTMMIRINGLDTHYMYRDVVDIVEACPRLDMILIPKVGVPADVYAIDVLTTQIEQAKKREKKIGFEVLIETALGMANVEAIATSSKRLEAMSFGVADYAASTRARSTVIGGVNADYSVLTDKDEAGNRQTHWQDPWLFAQNRMLVACRAYGLRPIDGPFGDFSDPDGYTSAARRCAALGFEGKWAIHPSQIDLANEVFTPSEAEVTKARRILEAMEEAAKAGRGAVSLDGRLIDIASIRMAEALIQKADAMGGK
notes: full length 324 aa
B1: in data set [1], the Km was found to be 500 µM and the Vmax is 36 μmol/(min mg prot).

B2: Metallosphaera sedula succinic semialdehyde reductase (Ms-SSR) mutant H39R, SEQ ID No. 32 (Metallosphaera sedula DSM 5348; H39R) (protein)
chain: MKAAVLHTYKEPLSIEDVNISQPKAGEVKIKVKATGLCRSDVNVFEGKTPVPPPVVAGHEISGIVEEVGPGVTRVKPGDRVISAFIHPCGKCGNCVAGKENLCETFSQVRLKGVMPDGTSRLSKDGKEIRTFLGGGFAEYAIVGENALTRVPEDMDLEKVAVLGCAGLTGYGAISSSKIEPGDTVAVIGVGGVGLSTIQLLRASGAGRIIAVGTKKWKLDRAMELGATDVVNSKEIDPVKAIKEITGGGPQVVIEAGGNEDTIHMALDSVRIGGKVVLVGLPPATAMIPIRVASIVRGGIEVVGNYGGRPRVDMPKLLELVRQGRYDPSRLVTGRFRLEEINEAVKMLEEGEAIRSLIIP
For the protein B2, the Michaelis constant (Km) in data set [2] was 1000 µM.

B3: Metallosphaera sedula succinic semialdehyde reductase (Ms-SSR) double mutant H39R N43H, SEQ ID No. 36 (Metallosphaera sedula DSM 5348; H39R/N43H) (protein)
chain: MKAAVLHTYKEPLSIEDVNISQPKAGEVKIKVKATGLCRSDVHVFEGKTPVPPPVVAGHEISGIVEEVGPGVTRVKPGDRVISAFIHPCGKCGNCVAGKENLCETFSQVRLKGVMPDGTSRLSKDGKEIRTFLGGGFAEYAIVGENALTRVPEDMDLEKVAVLGCAGLTGYGAISSSKIEPGDTVAVIGVGGVGLSTIQLLRASGAGRIIAVGTKKWKLDRAMELGATDVVNSKEIDPVKAIKEITGGGPQVVIEAGGNEDTIHMALDSVRIGGKVVLVGLPPATAMIPIRVASIVRGGIEVVGNYGGRPRVDMPKLLELVRQGRYDPSRLVTGRFRLEEINEAVKMLEEGEAIRSLIIP
Regarding B3, the Michaelis-Menten constant (Km) in data set [2] worked out at 1000 µM.

B4: Metallosphaera sedula succinic semialdehyde reductase (Ms-SSR), wild type, SEQ ID No. 16 (Metallosphaera sedula DSM 5348) (protein)
chain: MKAAVLHTYKEPLSIEDVNISQPKAGEVKIKVKATGLCHSDVNVFEGKTPVPPPVVAGHEISGIVEEVGPGVTRVKPGDRVISAFIHPCGKCGNCVAGKENLCETFSQVRLKGVMPDGTSRLSKDGKEIRTFLGGGFAEYAIVGENALTRVPEDMDLEKVAVLGCAGLTGYGAISSSKIEPGDTVAVIGVGGVGLSTIQLLRASGAGRIIAVGTKKWKLDRAMELGATDVVNSKEIDPVKAIKEITGGGPQVVIEAGGNEDTIHMALDSVRIGGKVVLVGLPPATAMIPIRVASIVRGGIEVVGNYGGRPRVDMPKLLELVRQGRYDPSRLVTGRFRLEEINEAVKMLEEGEAIRSLIIP
notes: full length 360 aa
Consider B4, for which the Km in data set [3] is 4000 µM.

B5: Metallosphaera sedula succinic semialdehyde reductase (Ms-SSR) mutant N43H, SEQ ID No. 34 (Metallosphaera sedula DSM 5348; N43H) (protein)
chain: MKAAVLHTYKEPLSIEDVNISQPKAGEVKIKVKATGLCHSDVHVFEGKTPVPPPVVAGHEISGIVEEVGPGVTRVKPGDRVISAFIHPCGKCGNCVAGKENLCETFSQVRLKGVMPDGTSRLSKDGKEIRTFLGGGFAEYAIVGENALTRVPEDMDLEKVAVLGCAGLTGYGAISSSKIEPGDTVAVIGVGGVGLSTIQLLRASGAGRIIAVGTKKWKLDRAMELGATDVVNSKEIDPVKAIKEITGGGPQVVIEAGGNEDTIHMALDSVRIGGKVVLVGLPPATAMIPIRVASIVRGGIEVVGNYGGRPRVDMPKLLELVRQGRYDPSRLVTGRFRLEEINEAVKMLEEGEAIRSLIIP
For the protein B5, the Km in data set [2] was determined as 5000 µM.

B6: Sulfolobus tokodaii malonyl-CoA reductase (St-Mcr), wild type, SEQ ID No. 7 (Sulfurisphaera tokodaii str. 7) (protein)
chain: MILMRRTLKAAILGATGLVGIEYVRMLSNHPYIKPAYLAGKGSVGKPYGEVVRWQTVGQVPKEIADMEIKPTDPKLMDDVDIIFSPLPQGAAGPVEEQFAKEGFPVISNSPDHRFDPDVPLLVPELNPHTISLIDEQRKRREWKGFIVTTPLCTAQGAAIPLGAIFKDYKMDGAFITTIQSLSGAGYPGIPSLDVVDNILPLGDGYDAKTIKEIFRILSEVKRNVDEPKLEDVSLAATTHRIATIHGHYEVLYVSFKEETAAEKVKETLENFRGEPQDLKLPTAPSKPIIVMNEDTRPQVYFDRWAGDIPGMSVVVGRLKQVNKRMIRLVSLIHNTVRGAAGGGILAAELLVEKGYIEK
notes: full length 359 aa
On to B6, for which the Michaelis-Menten constant (Km) in data set [4] is 200 µM; in data set [5], 1150 µM; in data set [6], 250 µM. Also, the Vmax is 0.98 ± 0.17 µmol/min/mg in data set [4], 1.7 µmol/min/mg in data set [5] and 0.1 µmol/min/mg in data set [6].

The Km is the substrate concentration at which the rate is half of its maximum. Broadly, the Vmax is the rate approached at saturating substrate.
